Assay [1] has as its target T1, human ALPP (on cells) (human, UniProt P05187 23-506).
T1 construct: the construct in the cells is not further defined; also called placental alkaline phosphatase; PLAP
Nature of the assay: flow cytometry on ALPP-expressing HEK293 cells. Here is the method: (§1) Cynomolgus ALPP, human ALPP, ALPPL2, ALPI and ALPL-expressing HEK293 cells were used to evaluate specificity and binding affinity. Briefly, one hundred thousand target-expressing HEK293 cells were transferred to 96-well plates. Cells were pelleted by centrifugation and resuspended in 100 μL of PBS+2% w/v BSA. After blocking, cells were resuspended in PBS+2% w/v BSA with unlabeled monoclonal anti-ALPP/ALPPL2 antibodies ranging in concentration from 8 pM to 666 nM and incubated on ice for 30 minutes. Cells were washed twice in PBS and resuspended in R-PE labeled secondary goat anti-human or anti-mouse antibodies (Jackson Immunoresearch, West Grove, PA) for 30 minutes on ice. […] Fluorescence was analyzed using an Attune NxT flow cytometer, and the percent of saturated fluorescent signal was used to determine percent bound and to subsequently calculate apparent KD.

In assay [2] the target is T2, human ALPPL2 (on cells) (human, UniProt P10696 20-503).
T2 construct: the construct in the cells is not further defined; also called HEK-ALPPL2 cells; ALPPL2-expressing LoVo cells
T2 sequence (P10696 20-503 limits assumed): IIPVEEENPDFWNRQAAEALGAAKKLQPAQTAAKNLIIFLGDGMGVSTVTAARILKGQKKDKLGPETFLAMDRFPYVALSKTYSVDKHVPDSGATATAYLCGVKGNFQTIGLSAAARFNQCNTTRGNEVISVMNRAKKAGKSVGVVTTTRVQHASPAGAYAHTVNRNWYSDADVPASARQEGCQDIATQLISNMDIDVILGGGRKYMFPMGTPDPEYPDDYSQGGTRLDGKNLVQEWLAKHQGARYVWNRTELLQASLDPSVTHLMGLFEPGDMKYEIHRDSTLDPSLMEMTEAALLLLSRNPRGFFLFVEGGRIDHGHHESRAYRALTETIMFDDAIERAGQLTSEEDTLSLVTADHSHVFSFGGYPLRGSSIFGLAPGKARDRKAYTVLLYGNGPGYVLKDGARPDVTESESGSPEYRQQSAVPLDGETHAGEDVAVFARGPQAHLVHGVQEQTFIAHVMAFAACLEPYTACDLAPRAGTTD
Nature of the assay: flow cytometry on ALPPL2-expressing HEK293 cells. Here is the method:
as §1
For orientation: A flow cytometer gives signals particle by particle.

The target in assay [3] is T1, human ALPP (on cells). As to the kind of experiment: flow cytometry saturation binding on ALPP-expressing HEK293 cells (row 'nM Kd' of the table under the plot). As to the method: as §1
The target in assay [4] is T2, human ALPPL2 (on cells). Nature of the assay: flow cytometry saturation binding on ALPPL2-expressing HEK293 cells (row 'nM Kd' of the table under the plot). Here is the method: as §1
The target in assay [5] is T3, hscFcRN (biotinylated avi-tagged, fused with monomeric Fc) (human, UniProt P55899 24-297; P61769 21-119, limits assumed, biotin on avi tag).
T3 construct: also called hFcRN; hscFcRN hmFc IHH A avi Biotin
T3 sequence (P55899 24-297 limits assumed, form in doubt, chain 1 of 2): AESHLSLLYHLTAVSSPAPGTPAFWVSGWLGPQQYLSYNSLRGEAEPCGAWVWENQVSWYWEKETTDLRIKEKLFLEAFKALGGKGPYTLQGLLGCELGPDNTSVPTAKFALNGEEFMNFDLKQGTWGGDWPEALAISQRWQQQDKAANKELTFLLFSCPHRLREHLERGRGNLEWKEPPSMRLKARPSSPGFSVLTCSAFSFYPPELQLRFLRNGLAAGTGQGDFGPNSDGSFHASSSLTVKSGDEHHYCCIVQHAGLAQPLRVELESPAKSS
T3 sequence (P61769 21-119 limits assumed, form in doubt, chain 2 of 2): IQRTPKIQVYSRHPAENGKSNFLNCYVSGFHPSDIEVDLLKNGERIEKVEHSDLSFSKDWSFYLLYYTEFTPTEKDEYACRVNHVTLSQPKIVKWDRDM
Nature of the assay: BLI (Octet HTX, 30 °C), biotinylated hFcRN on streptavidin biosensors, ADC as analyte, 1:1 fit, pH 6.0. The text has this:
(§2) Biotinylated avi-tagged human Fc receptors fused with monomeric Fc (designed and expressed at Seagen) were loaded onto high precision streptavidin biosensors (from ForteBio) to responses around 0.4 nm for all receptors except for hFcγR1 with responses around 1.2 nm. An initial baseline was completed in immobilization buffer (0.1% BSA, 0.02% Tween 20, 1×PBS pH 7.4) followed by a second baseline in kinetic buffer (1% casein, 0.2% Tween 20, 1×PBS pH 7.4 for hFcγRI, IIa, IIIa, and IIb interactions and 1% BSA+0.2% Tween 20, Phosphate Citrate pH 6.0 for hscFcRN interactions). […] Sensorgrams were generated on an Octet HTX system (ForteBio) at 30° C. and globally fitted with the 1:1 kinetic Langmuir isotherm model (Rmax unlinked) after a reference subtraction of the antigen-loaded, 0 nM analyte sensor. Negative controls with the highest concentration of antibodies and ADCs (20 μM) with no Fc receptor immobilized were also included to verify the absence of nonspecific binding of the analyte to the streptavidin biosensors themselves. Specific loading concentrations and times of each receptor to the streptavidin sensors and concentrations of titrated analytes are listed (Table 12 and Table 13).
For orientation: Biolayer interferometry detects binding as a change in optical thickness at a sensor tip.

Assay [6] deals with T4, hFcγRIIIa V158 (biotinylated avi-tagged, fused with monomeric Fc) (human, UniProt P08637 17-208, biotin on avi tag).
T4 construct: also called hFcγRIIIa V158 hmFc AAG avi Biotin
T4 sequence (P08637 17-208 F176V): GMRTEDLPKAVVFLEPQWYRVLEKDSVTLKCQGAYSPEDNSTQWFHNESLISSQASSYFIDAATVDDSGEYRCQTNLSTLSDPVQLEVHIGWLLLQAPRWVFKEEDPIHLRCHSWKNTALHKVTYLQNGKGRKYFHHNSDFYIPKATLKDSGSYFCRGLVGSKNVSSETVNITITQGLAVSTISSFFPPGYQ
Nature of the assay: BLI (Octet HTX, 30 °C), biotinylated Fc receptor on streptavidin biosensors, ADC as analyte, 1:1 fit, pH 7.4.
Text: as §2

Assay [7] deals with T5, hFcγRIIb (biotinylated avi-tagged, fused with monomeric Fc) (human, UniProt P31994 43-217, biotin on avi tag).
T5 construct: also called hFcγRIIb hmFc AAG avi Biotin
T5 sequence (looked up): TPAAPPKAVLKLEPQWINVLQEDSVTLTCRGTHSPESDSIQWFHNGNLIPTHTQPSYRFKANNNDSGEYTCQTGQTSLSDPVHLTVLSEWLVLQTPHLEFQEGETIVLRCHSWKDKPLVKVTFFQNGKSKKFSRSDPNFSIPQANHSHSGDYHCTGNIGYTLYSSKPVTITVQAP
The description is as above.
Text: as §2

Assay [8] concerns the target T6, hFcγRIIa R131 (biotinylated avi-tagged, fused with monomeric Fc) (human, UniProt P12318 34-217, biotin on avi tag).
T6 construct: also called hFcγRIIa R131 hmFc AAG avi Biotin
T6 sequence (looked up): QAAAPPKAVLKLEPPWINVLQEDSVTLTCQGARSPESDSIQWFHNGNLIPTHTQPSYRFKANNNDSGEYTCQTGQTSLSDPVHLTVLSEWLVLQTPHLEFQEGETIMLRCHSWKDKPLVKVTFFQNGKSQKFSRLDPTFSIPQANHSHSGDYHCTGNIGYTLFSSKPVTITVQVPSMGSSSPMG
Described as above.
Text: as §2

The target of assay [9] is T7, soluble human ALPP-Fc fusion dimer (human, UniProt P05187 23-506).
T7 construct: Made in CHO cells; also called hALPP; hALPP Fc
T7 sequence (P05187 23-506 limits assumed): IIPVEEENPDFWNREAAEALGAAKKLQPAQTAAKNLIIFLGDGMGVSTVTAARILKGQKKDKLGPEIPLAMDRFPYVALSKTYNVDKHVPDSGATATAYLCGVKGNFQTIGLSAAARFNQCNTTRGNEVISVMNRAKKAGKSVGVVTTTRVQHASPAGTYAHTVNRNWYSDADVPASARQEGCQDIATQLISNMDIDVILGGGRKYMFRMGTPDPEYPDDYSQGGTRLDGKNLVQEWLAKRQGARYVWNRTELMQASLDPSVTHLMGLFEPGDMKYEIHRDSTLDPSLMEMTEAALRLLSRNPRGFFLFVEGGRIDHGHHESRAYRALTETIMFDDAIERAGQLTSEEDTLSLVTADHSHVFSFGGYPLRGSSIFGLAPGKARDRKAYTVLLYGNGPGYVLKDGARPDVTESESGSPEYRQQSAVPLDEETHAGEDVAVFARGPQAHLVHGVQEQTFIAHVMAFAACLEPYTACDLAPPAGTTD
As to the kind of experiment: BLI (Octet), antibody on anti-human Fab-CH1 biosensors, hALPP Fc homodimer as analyte, pH 7.4, 37 °C, bivalent affinity. An excerpt: (§3) Soluble human ALPP-Fc and ALPPL2-Fc fusion dimer proteins were generated in CHO cells to be used as the analyte. […] After reference subtraction of the probe only curve, the data was globally fit with a 1:1 model with the Rmax sensor unlinked.

For assay [10], the target named is T7, soluble human ALPP-Fc fusion dimer. Nature of the assay: BLI, antibody on FAB2G biosensors, ALPP-Fc dimer as analyte, bivalent, pH 6.0, 37 C.
Text: as §3
(§4) The only difference was the use of a different kinetic buffer (1% casein and 0.2% Tween20 in phosphate citrate pH 6.0).

In assay [11] the target is T8, soluble human ALPPL2-Fc fusion dimer (human, UniProt P10696 20-503).
T8 construct: Made in CHO cells; also called hALPPL2
T8 sequence (P10696 20-503 limits assumed): as the sequence (P10696 20-503 limits assumed) above
Nature of the assay: BLI, antibody on FAB2G biosensors, ALPPL2-Fc dimer as analyte, bivalent, pH 6.0, 37 C.
Text: as §3, §4

For assay [12], the target named is T7, soluble human ALPP-Fc fusion dimer. Nature of the assay: BLI (Octet Red 384), antibody on FAB2G biosensors, ALPP-Fc dimer as analyte, bivalent, pH 7.4, 37 C, 1:1 global fit.
Text: as §3

The target in assay [13] is T8, soluble human ALPPL2-Fc fusion dimer. Nature of the assay: BLI (Octet Red 384), antibody on FAB2G biosensors, ALPPL2-Fc dimer as analyte, bivalent, pH 7.4, 37 C, 1:1 global fit.
Text: as §3

Numbering of substitutions follows the chain as printed.

T1 sequence (P05187 23-506 limits assumed): as the sequence (P05187 23-506 limits assumed) above

B1: murine antibody 12F3 (antibody, V domains shown)
VH: EVKLVESGGGLVQPGGSLSLSCAASGFTFTDYYMSWVRQPPGKALEWLALIRNKATGYTTEYSASVKGRFTISRDNSQSILYLQMNALRAEDSATYYCARASFYYDGKVLAYWGQGTLVTVSA
VL: DTQMTQSPSSLSASLGGKVTITCKASQDINKYIAWYQYKTGKGPRLLIHYTSTLQPGIPSRFSGSGSGRDYSFSISNLEPEDIATYYCLQYDNLYTFGGGTKLEIK
notes: mouse hybridoma antibody; also called SG82-12F3; m12F3
As to B1, the “EC50 (read off the curve)” value in assay [1] and in [2] was roughly 0.3 µg/mL each time. Besides, the values for the Kd in assay [3] and in [4] were 1.76 nM and 1.48 nM, respectively.

B2: h12F3 HGLF-mp-dLAE-MMAE (antibody)
VH: not shown
VL: DTQMTQSPSSLSASVGDRVTITCQASQDINKYLAWYQYKPGKAPKLLIHYTSSLQSGVPSRFSGSGSGRDYTFTISSLQPEDIATYYCLQYDNLYTFGQGTKLEIKRTVAAPSVFIFPPSDEQLKSGTASVVCLLNNFYPREAKVQWKVDNALQSGNSQESVTEQDSKDSTYSLSSTLTLSKADYEKHKVYACEVTHQGLSSPVTKSFNRGEC
modifications: mp-dLAE-PABC-MMAE drug-linker on cysteines of the partially reduced antibody, 4 loads per antibody (chain and site not stated)
notes: antibody-drug conjugate of h12F3 HGLF; also called h12F3-mp-dLAE-MMAE; HGLF-dLAE-MMAE(4); copies: 2 + 2
Take B2: the Kd in assay [5] was 10.6 nM; in assay [6], 1100 nM; in assay [7], 36000 nM.

B3: h12F3 HGLF-mc-vc-MMAE (antibody)
VH: not shown
VL: B2 VL
modifications: mc-vc-PABC-MMAE drug-linker on cysteines of the partially reduced antibody, 4 loads per antibody (chain and site not stated)
notes: antibody-drug conjugate of h12F3 HGLF; also called h12F3 HGLF-me-vc-MMAE; h12F3 HGLF-vc-MMAE(4); copies: 2 + 2
On to B3, for which the Kd in assay [5] worked out at 13.2 nM; in assay [8] it was 7300 nM; in [7] it was 67000 nM.

B4: h12F3 HFLD (antibody, V domains shown)
VH: EVQLVESGGGLVQPGRSLRLSCTASGFTFTDYYMSWVRQAPGKGLEWLALIRNKATGYTTEYSASVKGRFTISRDNSKSILYLQMNSLKTEDTAVYYCARASFYYDGKVLAYWGQGTLVTVSS
VL: DTQMTQSPSSLSASVGDRVTITCQASQDINKYIAWYQQKPGKAPKLLIYYTSSLQPGVPSRFSGSGSGTDYTFTISSLQPEDIATYYCLQYDNLYTFGQGTKLEIKR
notes: humanized 12F3 IgG variant
In assay [9], B4 had a Kd of 3.5 nM.

B5: h12F3 HGLF (antibody, V domains shown)
VH: B4 VH with S63T
VL: DTQMTQSPSSLSASVGDRVTITCQASQDINKYLAWYQYKPGKAPKLLIHYTSSLQSGVPSRFSGSGSGRDYTFTISSLQPEDIATYYCLQYDNLYTFGQGTKLEIK
notes: Whole humanized IgG; also called humanized 12F3 HGLF; naked h12F3 antibody
On to B5, for which the Kd in [10] was determined as 6.8 nM; in [11], 4.8 nM; in [12], 0.13 nM; in assay [13], 0.044 nM.
